The target in test [1] is T1, human IL4Rα expressed on 293F-IL4Rα cell surface (human, UniProt P24394 26-825).
T1 construct: whole, on cells; also called human IL4Rα-expressing cells; cell surface IL4R
The test can be described thus: flow cytometry on 293F-IL4Rα cells, PE anti-human IgG Fc. On the procedure:
Cells were washed twice with FACS buffer, and added with 100 μL/well R-Phycoerythrin AffiniPure Goat Anti-Human IgG, Fey fragment specific (1:1000 dilution in FACS buffer, Jackson Immunoresearch, Cat #109-115-098). Following an incubation of 40 minutes at 4° C. in dark, cells were washed three times and resuspended in FACS buffer. Fluorescence was measured using a Becton Dickinson FACS Canto II-HTS equipment. Data was analyzed using Graphpad Prism and EC₅₀ values were reported.
(A flow cytometer gives signals particle by particle.)

For test [2], the target named is T1, human IL4Rα expressed on 293F-IL4Rα …. Described as above. The source holds these as a separate data set.
Test [3] concerns the target T2, recombinant human IL4Rα-his (human, UniProt P24394 26-231, limits assumed, biotin-labeled in the capture ELISA).
T2 construct: In-house made; not shown: His tag at the C-terminus
The test can be described thus: capture ELISA: antibody captured on anti-human IgG Fc F(ab')2, biotin human IL4Rα-his, SA-HRP. (In general: An ELISA detects its analyte on a solid surface through an enzyme-linked reagent.)

Like-named read-outs stand apart in the source and are kept apart here.

B1: BSI-502-003 (bispecific antibody, human IgG1, kappa)
heavy: EVQLVESGGGLVQPGGSLRLSCAASGFTFSTYGMSWVRQAPGKGLVWVATINSNGGSTSYPDSVKGRFTISRDNAKNTLYLQMNSLRAEDTAVYYCARFFRFRNAMDYWGQGTLVTVSSGGGGSGGGGSGGGGSGGGGSDIQMTQSPSSLSASVGDRVTITCRTSENIYSYLAWYQQKPGKAPKFLVYNAKTLAEGVPSRFSGSGSGTDFTLTISSLQPEDFATYYCQHYYGPPTWTFGQGTKVEIKGGGGSGGGGSQVQLVQSGAEVKKPGASVKVSCKASGYTFTTYWMHWVRQAPGQGLEWMGVIDPSDSDTTYNQKFKGRVTMTRDTSTSTVYMELSSLRSEDTAVYYCTRSLDGYYDYWGQGTLVTVSSASTKGPSVFPLAPSSKSTSGGTAALGCLVKDYFPEPVTVSWNSGALTSGVHTFPAVLQSSGLYSLSSVVTVPSSSLGTQTYICNVNHKPSNTKVDKKVEPKSCDKTHTCPPCPAPEAQGGPSVFLFPPKPKDTLYITREPEVTCVVVDVSHEDPEVKFNWYVDGVEVHNAKTKPREEQYNSTYRVVSVLTVLHQDWLNGKEYKCQVSNKALPAPIEKTISKAKGQPREPQVYTLPPSRDELTKNQVSLTCLVKGFYPSDIAVEWESNGQPENNYKTTPPVLDSDGSFFLYSKLTVDKSRWQQGNVFSCSVMHEALHNHYTQKSLSLSPG
light: DIQMTQSPSSLSASVGDRVTITCRPTENIYSYLAWYQQKPGKAPKLLIYFARTLAEGVPSRFSGSGSGTDFTLTISSLQPEDFATYYCQHHYGTPWTFGGGTKVEIKRTVAAPSVFIFPPSDEQLKSGTASVVCLLNNFYPREAKVQWKVDNALQSGNSQESVTEQDSKDSTYSLSSTLTLSKADYEKHKVYACEVTHQGLSSPVTKSFNRGEC
notes: hu1C5F12E9-V8 IgG with an anti-IL4R scFv (huC2C1A1A1-V15, VH-VL) at the N-terminus of the heavy chain; AQQ and YTE already stand in the entry
The molecule B1 returned an EC50 in test [1] of 0.203 nM.

B2: BSI-502-004 (bispecific antibody, human IgG1, kappa)
heavy: DIQMTQSPSSLSASVGDRVTITCRTSENIYSYLAWYQQKPGKAPKFLVYNAKTLAEGVPSRFSGSGSGTDFTLTISSLQPEDFATYYCQHYYGPPTWTFGQGTKVEIKGGGGSGGGGSGGGGSGGGGSEVQLVESGGGLVQPGGSLRLSCAASGFTFSTYGMSWVRQAPGKGLVWVATINSNGGSTSYPDSVKGRFTISRDNAKNTLYLQMNSLRAEDTAVYYCARFFRFRNAMDYWGQGTLVTVSSGGGGSGGGGSQVQLVQSGAEVKKPGASVKVSCKASGYTFTTYWMHWVRQAPGQGLEWMGVIDPSDSDTTYNQKFKGRVTMTRDTSTSTVYMELSSLRSEDTAVYYCTRSLDGYYDYWGQGTLVTVSSASTKGPSVFPLAPSSKSTSGGTAALGCLVKDYFPEPVTVSWNSGALTSGVHTFPAVLQSSGLYSLSSVVTVPSSSLGTQTYICNVNHKPSNTKVDKKVEPKSCDKTHTCPPCPAPEAQGGPSVFLFPPKPKDTLYITREPEVTCVVVDVSHEDPEVKFNWYVDGVEVHNAKTKPREEQYNSTYRVVSVLTVLHQDWLNGKEYKCQVSNKALPAPIEKTISKAKGQPREPQVYTLPPSRDELTKNQVSLTCLVKGFYPSDIAVEWESNGQPENNYKTTPPVLDSDGSFFLYSKLTVDKSRWQQGNVFSCSVMHEALHNHYTQKSLSLSPG
light: B1 light
notes: hu1C5F12E9-V8 IgG with an anti-IL4R scFv (VL-VH) at the N-terminus of the heavy chain; AQQ and YTE already stand in the entry
The molecule B2 showed a 50% effective concentration (EC50) in test [1] of 0.169 nM.

B3: BSI-502-005 (bispecific antibody, human IgG1, kappa)
heavy: QVQLVQSGAEVKKPGASVKVSCKASGYTFTTYWMHWVRQAPGQGLEWMGVIDPSDSDTTYNQKFKGRVTMTRDTSTSTVYMELSSLRSEDTAVYYCTRSLDGYYDYWGQGTLVTVSSASTKGPSVFPLAPSSKSTSGGTAALGCLVKDYFPEPVTVSWNSGALTSGVHTFPAVLQSSGLYSLSSVVTVPSSSLGTQTYICNVNHKPSNTKVDKKVEPKSCDKTHTCPPCPAPEAQGGPSVFLFPPKPKDTLYITREPEVTCVVVDVSHEDPEVKFNWYVDGVEVHNAKTKPREEQYNSTYRVVSVLTVLHQDWLNGKEYKCQVSNKALPAPIEKTISKAKGQPREPQVYTLPPSRDELTKNQVSLTCLVKGFYPSDIAVEWESNGQPENNYKTTPPVLDSDGSFFLYSKLTVDKSRWQQGNVFSCSVMHEALHNHYTQKSLSLSPGKGGGGSGGGGSEVQLVESGGGLVQPGGSLRLSCAASGFTFSTYGMSWVRQAPGKGLVWVATINSNGGSTSYPDSVKGRFTISRDNAKNTLYLQMNSLRAEDTAVYYCARFFRFRNAMDYWGQGTLVTVSSGGGGSGGGGSGGGGSGGGGSDIQMTQSPSSLSASVGDRVTITCRTSENIYSYLAWYQQKPGKAPKFLVYNAKTLAEGVPSRFSGSGSGTDFTLTISSLQPEDFATYYCQHYYGPPTWTFGQGTKVEIK
light: B1 light
notes: hu1C5F12E9-V8 IgG with an anti-IL4R scFv (VH-VL) at the C-terminus of the heavy chain; AQQ and YTE already stand in the entry
With B3, the 50% effective concentration (EC50) in test [2] was 0.417 nM; in test [3], 0.119 nM.

B4: BSI-502-001 (bispecific antibody, human IgG1, kappa)
heavy: EVQLVESGGGLVQPGGSLRLSCAASGFTFSTYGMSWVRQAPGKGLVWVATINSNGGSTSYPDSVKGRFTISRDNAKNTLYLQMNSLRAEDTAVYYCARFFRFRNAMDYWGQGTLVTVSSASTKGPSVFPLAPSSKSTSGGTAALGCLVKDYFPEPVTVSWNSGALTSGVHTFPAVLQSSGLYSLSSVVTVPSSSLGTQTYICNVNHKPSNTKVDKKVEPKSCDKTHTCPPCPAPEAQGGPSVFLFPPKPKDTLYITREPEVTCVVVDVSHEDPEVKFNWYVDGVEVHNAKTKPREEQYNSTYRVVSVLTVLHQDWLNGKEYKCQVSNKALPAPIEKTISKAKGQPREPQVYTLPPSRDELTKNQVSLTCLVKGFYPSDIAVEWESNGQPENNYKTTPPVLDSDGSFFLYSKLTVDKSRWQQGNVFSCSVMHEALHNHYTQKSLSLSPGKGGGGSGGGGSQVQLVQSGAEVKKPGASVKVSCKASGYTFTTYWMHWVRQAPGQGLEWMGVIDPSDSDTTYNQKFKGRVTMTRDTSTSTVYMELSSLRSEDTAVYYCTRSLDGYYDYWGQGTLVTVSSGGGGSGGGGSGGGGSGGGGSDIQMTQSPSSLSASVGDRVTITCRPTENIYSYLAWYQQKPGKAPKLLIYFARTLAEGVPSRFSGSGSGTDFTLTISSLQPEDFATYYCQHHYGTPWTFGGGTKVEIK
light: DIQMTQSPSSLSASVGDRVTITCRTSENIYSYLAWYQQKPGKAPKFLVYNAKTLAEGVPSRFSGSGSGTDFTLTISSLQPEDFATYYCQHYYGPPTWTFGQGTKVEIKRTVAAPSVFIFPPSDEQLKSGTASVVCLLNNFYPREAKVQWKVDNALQSGNSQESVTEQDSKDSTYSLSSTLTLSKADYEKHKVYACEVTHQGLSSPVTKSFNRGEC
notes: huC2C1A1A1-V15 IgG with an anti-TSLP scFv (hu1C5F12E9-V8, VH-VL) at the C-terminus of the heavy chain
Molecule B4 came in with an EC50 in test [1] of 0.18 nM.

B5: BSI-502-002 (bispecific antibody, human IgG1, kappa)
heavy: EVQLVESGGGLVQPGGSLRLSCAASGFTFSTYGMSWVRQAPGKGLVWVATINSNGGSTSYPDSVKGRFTISRDNAKNTLYLQMNSLRAEDTAVYYCARFFRFRNAMDYWGQGTLVTVSSASTKGPSVFPLAPSSKSTSGGTAALGCLVKDYFPEPVTVSWNSGALTSGVHTFPAVLQSSGLYSLSSVVTVPSSSLGTQTYICNVNHKPSNTKVDKKVEPKSCDKTHTCPPCPAPEAQGGPSVFLFPPKPKDTLYITREPEVTCVVVDVSHEDPEVKFNWYVDGVEVHNAKTKPREEQYNSTYRVVSVLTVLHQDWLNGKEYKCQVSNKALPAPIEKTISKAKGQPREPQVYTLPPSRDELTKNQVSLTCLVKGFYPSDIAVEWESNGQPENNYKTTPPVLDSDGSFFLYSKLTVDKSRWQQGNVFSCSVMHEALHNHYTQKSLSLSPGKGGGGSGGGGSDIQMTQSPSSLSASVGDRVTITCRPTENIYSYLAWYQQKPGKAPKLLIYFARTLAEGVPSRFSGSGSGTDFTLTISSLQPEDFATYYCQHHYGTPWTFGGGTKVEIKGGGGSGGGGSGGGGSGGGGSQVQLVQSGAEVKKPGASVKVSCKASGYTFTTYWMHWVRQAPGQGLEWMGVIDPSDSDTTYNQKFKGRVTMTRDTSTSTVYMELSSLRSEDTAVYYCTRSLDGYYDYWGQGTLVTVSS
light: B4 light
notes: huC2C1A1A1-V15 IgG with an anti-TSLP scFv (VL-VH) at the C-terminus of the heavy chain; AQQ and YTE already stand in the entry
Molecule B5 came in with a concentration for a half-maximal effect (EC50) in test [1] of 0.173 nM.

What is called EC50 is the concentration needed to bring the measured effect to its halfway point.

Source of the values: patent publication US20260109758A1 (BIOSION, published 2026).
